± gives the standard deviation.
Assay: protein stability index of a GFP-peptide fusion (GPS, HEK-293T) (PSI 1-6); higher = more stable
[1] = treatment: DMSO, c terminus: a fixed tail appended
[2] = treatment: MLN4924 1 uM, 8 h, c terminus: a fixed tail appended
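Also: 24-mer peptide tiles fused after GFP, lentivirally expressed, FACS-sorted into six equal bins by GFP/DsRed ratio, decoded by Illumina sequencing, PSI is the read-weighted mean bin number.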

| Sequence | protein stability index [1] | protein stability index [2] | protein stability index (treatment: DMSO, c terminus: native) | protein stability index (treatment: MLN4924 1 uM, 8 h, c terminus: native) |
| --- | --- | --- | --- | --- |
| PAPSPHEEPCSPGLLQDQGSGLSS [CBY2] | 5.31 ± 0.22 | 5.194 ± 0.04 |  |  |
| PASGSGADSEPARHIFSFSWLNSL [TRIM55] | 2.36 ± 0.16 | 2.5 ± 0.21 |  |  |
| PASGSTFRGRRDVSGSWERDQQVE [RETREG3] | 4.67 ± 0.22 | 4.86 ± 0.28 |  |  |
| PATEEQEAASSSSTLVEVTLGEVP [MAGEA3] | 5.52 ± 0.17 | 5.51 ± 0.17 |  |  |
| PDVRPPLGRGLVGGQEEASQEAGL [SEPHS2] | 5.27 ± 0.14 | 5.31 ± 0.18 |  |  |
| PEGSLSQTMAGSSPNTPQPVPEQS [FAM104A] | 5.47 ± 0.14 | 5.45 ± 0.12 |  |  |
| PEKKSDQPMCEEHEEERINIYCLN [TRIM55] | 4.79 ± 0.12 | 4.77 ± 0.35 |  |  |
| PENGEIKPASKPAGSSHTPSSQSS [ELOA2] | 5.43 ± 0.25 | 5.62 ± 0.067 |  |  |
| PENLLLASKCKGAAVKLADFGLAI [CAMK2B] | 2.33 ± 0.31 | 2.56 ± 0.44 |  |  |
| PERLCSGPGIVGNVLVDPSARIGQ [GMPPB] | 3.92 ± 0.27 | 3.89 ± 0.22 |  |  |
| PESLNSPVSGKAVFMEFGPPNQQM [DLX1] | 3.79 ± 0.33 | 3.92 ± 0.26 |  |  |
| PFGFQTVTSDVNKLSSFYSLKLIK [SERPINB5] | 2.15 ± 0.17 | 2.31 ± 0.41 |  |  |
| PFTPLHIKVKPKRVGIFLDYEAGT [TRIM39] | 2.45 ± 0.28 | 2.67 ± 0.26 |  |  |
| PGGNVKGVWAPPAPGFGEDVPNRL [BEX5] | 3.95 ± 0.18 | 4.16 ± 0.23 |  |  |
| PGHSGVSCEEVAASSASLEPMWSG [EMID1] |  | 5.08 ± 0.08 |  |  |
| PGRDRVGREDEDGWETRGDRKARK [HES6] | 5.49 ± 0.26 | 5.48 ± 0.17 |  |  |
| PGTPPSYSSRTPGTPGTPSYPRTP [MAP2] | 4.72 ± 0.39 | 4.55 ± 0.34 |  |  |
| PGVQAPEDLEWERYRGRGSEEYRA [CHGB] | 4.8 ± 0.17 | 5.18 ± 0.63 |  |  |
| PHYICTLKQPHLLLEKYSYYLISG [PNLIPRP1] | 2.78 ± 0.81 | 2.74 ± 0.69 |  |  |
| PIFQDSQDTEVFSWSDNERSSSRI [FAM104B] | 4.34 ± 0.55 | 4.41 ± 0.26 |  |  |
| PIYGLRQSILLNTRLQDCYVDSPA [C22orf31] | 2.69 ± 0.2 | 2.55 ± 0.38 |  |  |
| PKQSGSFRYLQGMLEAGEGGDWPG [PDLIM4] | 3.79 ± 0.34 | 3.96 ± 0.15 |  |  |
| PKTPMDGADCGIQWWNAVFIMLLI [LYSMD4] | 2.5 ± 0.62 | 2.39 ± 0.41 |  |  |

| Sequence | protein stability index [1] | protein stability index [2] | protein stability index (treatment: DMSO, c terminus: native) | protein stability index (treatment: MLN4924 1 uM, 8 h, c terminus: native) |
| --- | --- | --- | --- | --- |
| PLAVEEDASSSTSTSSSFPSSFPS [MAGEA10] | 5.31 ± 0.23 | 5.41 ± 0.12 |  |  |
| PLGVDESLFSYGLRESIASYLSLT [SLA] | 2.03 ± 0.19 | 2.3 ± 0.13 |  |  |
| PLHHQTQRFRLDNLLNMAYGVKSP [ELAVL3] | 2.5 ± 0.34 | 2.63 ± 0.27 |  |  |
| PLKAQNDLDISRIKRGNTTLESTD [P2RY14] | 5 ± 0.11 | 5.24 ± 0.24 |  |  |
| PLMPGMPPVMPGMPPGLHHQRKYT [ZNF207] | 3.91 ± 0.39 | 4.11 ± 0.18 |  |  |
| PLPPPPPAFKSMEVANFYYEADCL [CEBPB] | 3.9 ± 0.31 | 3.62 ± 0.33 |  |  |
| PLTGDKDDEEVDTHFASQEFFSAN [ADAMTSL2] | 5.37 ± 0.11 | 5.45 ± 0.19 |  |  |
| PMPLAPTRSHLWEAAQVVPDGLGL [TRIB3] | 3.48 ± 0.32 | 3.34 ± 0.23 |  |  |
| PPHVLISRPSAPFTEASMMMSLTK [ESR2] | 3.48 ± 0.084 | 3.44 ± 0.18 |  |  |
| PPTYPTKYFGCELGAQTQFDVKND [EIF5] | 4.35 ± 0.17 | 4.494 ± 0.038 |  |  |
| PQEAVLQQLHQLPRGRLDLATQSL [LRRC45] | 3.75 ± 0.15 | 3.74 ± 0.21 |  |  |
| PQRPRSAPRTSSCAERLQSEEQVS [FCHO1] | 4.85 ± 0.39 | 4.9 ± 0.24 |  |  |
| PRELASMSLVLHGNNLLVFGGTGI [KLHDC10] | 2.46 ± 0.71 | 2.45 ± 0.59 |  |  |
| PRGSHSSALERLETKLHLLRQEMV [LURAP1L] | 2.53 ± 0.33 | 2.69 ± 0.27 |  |  |
| PRLVSETAERKQEQKTGTEAEAAD [MFSD9] | 5.77 ± 0.12 | 5.61 ± 0.25 |  |  |
| PRVRELLLDALSPEQLVLTLLEAE [ESR2] | 2.22 ± 0.22 | 2.22 ± 0.26 |  |  |
| PSGFLQISDALIRRVHLTEDQWGK [TRIM9] | 2.84 ± 0.25 | 2.59 ± 0.24 |  |  |
| PSLGDSLESIPSLSQSPEPGRRGD [RTN2] | 5.32 ± 0.45 | 5.48 ± 0.12 |  |  |
| PSTTPPAHSSSNTIRSGISPNLNV [SASS6] | 4.29 ± 0.33 | 4.44 ± 0.28 |  |  |
| PSVEQAADSLDFDETFLATSFLQH [FOXJ1] | 4.43 ± 0.18 | 4.41 ± 0.4 |  |  |
| PSVPPTIKEEENSEEELAAATTSK [MYBL2] | 5.52 ± 0.53 | 5.56 ± 0.4 |  |  |
| PTKDRLEGLLAFKEKRPPRYKGE [AUH] |  |  | 2.11 ± 0.31 | 4.4 ± 0.1 |
| PTMPQPIEKVSVSTQTKKLSASSP [ZMYND11] | 5.28 ± 0.18 | 5.24 ± 0.25 |  |  |

| Sequence | protein stability index [1] | protein stability index [2] | protein stability index (treatment: DMSO, c terminus: native) | protein stability index (treatment: MLN4924 1 uM, 8 h, c terminus: native) |
| --- | --- | --- | --- | --- |
| PTPANEERRGGLPPLPLHPGGDQG [WAS] | 5.38 ± 0.22 | 5.39 ± 0.065 |  |  |
| PTQGPETPRSPEGTTEAATQDGKE [PXN] | 5.62 ± 0.19 | 5.48 ± 0.22 |  |  |
| PVLEDNYMYLVIEELTREAVAVDV [HAGHL] | 2.34 ± 0.57 | 2.47 ± 0.17 |  |  |
| PVQGSSEDNLSLVCLPRSEDDDCD [DRICH1] | 5.62 ± 0.2 | 5.53 ± 0.21 |  |  |
| PWARGCGMFTFLSSVTAAVSGLLV [SLC2A12] | 2.54 ± 0.3 | 2.57 ± 0.21 |  |  |
| PWTKEEDQKVIELVKKYGTKQWTL [MYBL2] | 2.61 ± 0.24 | 2.72 ± 0.16 |  |  |
| QACSLPASCCIDPREDGASVNDQC [TSPAN10] | 5.06 ± 0.27 | 5.11 ± 0.25 |  |  |
| QAGPEATTSDPQDLDMKKHRCKCC [PALM] | 5.06 ± 0.3 | 5.17 ± 0.11 |  |  |
| QAQPAIPRPNRLFLRQLRASHLGN [C2CD2L] | 3.09 ± 0.33 | 3.08 ± 0.27 |  |  |
| QASKLRASKEEKEDWLSHALSRKK [FBF1] | 4.5 ± 0.24 | 4.54 ± 0.26 |  |  |
| QDFPVKKRKKLSTWKQELLKLMDR [ZNF75A] | 2.5 ± 0.11 | 2.53 ± 0.17 |  |  |
| QDIERGVQSEIFLHESYCMDTSHQ [LYSMD4] | 4.24 ± 0.15 | 4.25 ± 0.14 |  |  |
| QDLLDVIRIKLDPCHPTVKNWRNF [EDARADD] | 2.27 ± 0.75 | 2.35 ± 0.34 |  |  |
| QEKKLSFIEALIQQYQEQLDKSTK [TRIM63] | 2.82 ± 0.19 | 3.11 ± 0.5 |  |  |
| QFNVSGPGLLEEDNQWMTQINRLQ [NECAB1] | 3.02 ± 0.13 | 3.31 ± 0.19 |  |  |
| QGIFVEKYDPTIEDSYRKQVEVDA [RAP1B] | 4.72 ± 0.11 | 4.44 ± 0.12 |  |  |
| QGIGSKIIKKVAEVALDKGCSQFR [SAT2] | 2.44 ± 0.68 | 2.27 ± 0.36 |  |  |
| QGLIRAGKVEAQHILASAPTDRNL [PYCR3] | 3.96 ± 0.16 | 4.07 ± 0.4 |  |  |
| QGSPAVDKERFTTLVQDLANAFQQ [CHIT1] | 3.13 ± 0.25 | 3.48 ± 0.22 |  |  |
| QHAVQELTKAATSGVGIDGEVLSY [RHOBTB1] | 4.5 ± 0.25 | 4.57 ± 0.14 |  |  |
| QILDSLSYMRNENVISELNIEDYF [FBXO39] | 2.32 ± 0.29 | 2.2 ± 0.12 |  |  |
| QILKDTKSITSAMNELQHDLDVVS [TPH1] | 3.82 ± 0.24 | 3.97 ± 0.092 |  |  |
| QIPTQNTQARQVMEREFNNLLALG [PPFIA4] | 3.56 ± 0.12 | 3.37 ± 0.21 |  |  |

| Sequence | protein stability index [1] | protein stability index [2] | protein stability index (treatment: DMSO, c terminus: native) | protein stability index (treatment: MLN4924 1 uM, 8 h, c terminus: native) |
| --- | --- | --- | --- | --- |
| QKHYVYGPLPQSFDKEWVAKQTKR [COX4I1] | 3.55 ± 0.41 | 3.7 ± 0.28 |  |  |
| QKNGGGAYLVPYLVLLIIIGIPLF [SLC6A17] | 2.37 ± 0.061 | 2.83 ± 1.5 |  |  |
| QKRLKSKLLDHDNVKYLKKILDEL [GDAP1] | 2.1 ± 0.24 | 2.19 ± 0.22 |  |  |
| QLCEKAPKEATVMCEQCDVFYCDP [TRIM9] | 4.33 ± 0.081 | 4.33 ± 0.25 |  |  |
| QLHHVVYCFMIAYGTQRTLILESQ [FUT8] | 3.12 ± 0.55 | 3.17 ± 0.36 |  |  |
| QLNRRGEFIQEIRRQLEACQRERA [OAS1] | 4.09 ± 0.19 | 3.79 ± 0.075 |  |  |
| QLQAARNEYLLNLVATNAHLDHYY [FCHSD1] | 2.58 ± 0.44 | 2.55 ± 0.73 |  |  |
| QLQSMPSRELASMNLDIVDLLKKA [RHOBTB3] | 3.46 ± 0.35 | 3.79 ± 0.47 |  |  |
| QMMPYMQPVMQSDRTAIRSDTTHL [KLHL13] | 3.5 ± 0.24 | 3.5 ± 0.23 |  |  |
| QNPKDCSKAKKLVCNINKGCGYGC [FUT8] | 3.53 ± 0.1 | 3.48 ± 0.17 |  |  |
| QPLEASNPALEGLTQPLQGGTPHC [DNAAF3] | 5.11 ± 0.15 | 5.09 ± 0.35 |  |  |
| QPPPQSSEGLVGALMHVMQKRSRA [WAS] | 4.21 ± 0.41 | 4.24 ± 0.12 |  |  |
| QQQHIECVVCGDKSSGKHYGQFTC [NR2F2] | 3.06 ± 0.24 | 3.12 ± 0.48 |  |  |
| QREEHELVHVMERSLSPSLSSVDM [RAD54B] | 4.62 ± 0.31 | 4.76 ± 0.11 |  |  |
| QRGRVISLWERLEFVNGWYILLVT [MCOLN1] | 2.79 ± 0.68 | 2.67 ± 0.65 |  |  |
| QSGFEMLKDVKSTLEKCEKVKTME [TRIM39] | 5.11 ± 0.2 | 4.86 ± 0.2 |  |  |
| QSGLVWTNCWLIRELNLPFGGMKS [ALDH8A1] | 2.6 ± 0.48 | 2.61 ± 0.68 |  |  |
| QTAVQFQQYAAQQYPGNYEQQQIL [ACBD3] | 3.71 ± 0.22 | 3.61 ± 0.23 |  |  |
| QTESGSEEVSSTVHIETFTTRHGE [C10orf62] | 5.21 ± 0.3 | 5.27 ± 0.34 |  |  |
| QTLQALNFCHIHNCIHRDIKPENI [CDKL4] | 2.47 ± 0.28 | 2.34 ± 0.26 |  |  |

— the supplement of paper PMC10567573
